From IntAct's records for PubMed 26948053 come the findings set out here.

B1: N-terminal EF-hand calcium-binding protein 3 (Homo sapiens), Q96P71-2 (parent)
chain: MACAGLLTVCLLRPPAPQPQPQTPRHPQLAPDPGPAGHTLFQDVFRRADKNDDGKLSFEEFQNYFADGVLSLGELQELFSGIDGHLTDNLETEKLCDYFSEHLGVYRPVLAALESLNRAVLAAMDATKLEYERASKVDQFVTRFLLRETVSQLQALQSSLEGASDTLEAQAHGWRSDAESVEAQSRLCGSRRAGRRALRSVSRSSTWSPGSSDTGRSSEAEMQWRLQVNRLQELIDQLECKAPRLEPLREEDLAKGPDLHILMAQRQVQVAEEGLQDFHRALRCYVDFTGAQSHCLHVSAQKMLDGASFTLYEFWQDEASWRRHQQSPGSKAFQRILIDHLRAPDTLTTVFFPASWWIMNNN
partner: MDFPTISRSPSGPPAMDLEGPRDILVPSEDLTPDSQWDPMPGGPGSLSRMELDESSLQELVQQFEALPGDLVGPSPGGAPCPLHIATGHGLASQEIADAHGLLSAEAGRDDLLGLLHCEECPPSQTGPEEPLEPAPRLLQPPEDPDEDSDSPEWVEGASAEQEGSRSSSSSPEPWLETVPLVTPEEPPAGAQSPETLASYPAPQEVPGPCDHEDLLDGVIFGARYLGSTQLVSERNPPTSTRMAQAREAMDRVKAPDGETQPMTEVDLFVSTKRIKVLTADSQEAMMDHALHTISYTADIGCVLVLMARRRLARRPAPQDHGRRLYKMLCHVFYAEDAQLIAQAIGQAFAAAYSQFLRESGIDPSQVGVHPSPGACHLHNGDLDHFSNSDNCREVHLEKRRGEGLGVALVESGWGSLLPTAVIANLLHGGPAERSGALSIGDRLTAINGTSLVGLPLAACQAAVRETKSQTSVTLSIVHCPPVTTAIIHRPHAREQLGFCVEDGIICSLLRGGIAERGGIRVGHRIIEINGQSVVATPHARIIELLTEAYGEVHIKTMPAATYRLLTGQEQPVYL

This assay covers variants of B1. The conditions noted are these: with apba3_human APBA3, O96018.
Turning to H324A, the “effect of a mutation on the interaction” value is “with no effect”.
